Experimental findings from patent publication US8637043B2, “Compositions useful as ligands for the formyl peptide receptor like 1 receptor and methods of use thereof” (Chemocentryx, Inc., priority 2001, dated 2014) are described below.

Values joined by “and” are separate entries in the source; they are usually repeats but may differ in a detail not shown here. Equal values may be shown once. Ends that are not written are not given here.

In assay [1] the target is T1, human FPRL1 (Homo sapiens, UniProt P25090).
T1 construct: Full length cDNA encoding FPRL1 was cloned, using the polymerase chain reaction (PCR), from genomic DNA isolated from undifferentiated HL-60 cells; expressed in transfected cells; linearized FPRL1/pcDNA3.1, electroporation
T1 sequence (P25090 1-351): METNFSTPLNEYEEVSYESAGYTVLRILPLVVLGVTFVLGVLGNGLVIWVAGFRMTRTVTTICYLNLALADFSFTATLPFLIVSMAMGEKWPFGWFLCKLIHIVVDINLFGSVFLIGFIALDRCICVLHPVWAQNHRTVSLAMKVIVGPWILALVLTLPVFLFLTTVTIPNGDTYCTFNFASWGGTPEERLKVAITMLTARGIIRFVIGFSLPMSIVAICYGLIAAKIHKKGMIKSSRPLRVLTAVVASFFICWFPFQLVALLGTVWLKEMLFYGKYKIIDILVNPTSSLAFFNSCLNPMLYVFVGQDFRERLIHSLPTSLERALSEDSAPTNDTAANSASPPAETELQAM
As to the kind of experiment: Calcium flux in FPRL1-L1.2 transfectants. Particulars: for Designation and FPRL1 Activity: qualitative rating high, moderate, low, see Example 9; for Notes: activity: qualitative rating, Table 6; for calcium release / mobilization: FPRL1 expressing L1.2 cells. Format: cell-based. The procedure: Ca^2+ mobilization responses were performed using the intracellular ratiometric fluorescent dye, lndo-1. Cells were loaded with Indo-1/AM (3 μM; Molecular Probes, Eugene, Oreg.) in culture medium (45 min, 20° C., 10^7 cells/ml). After dye loading, cells were washed once with 10 ml PBS) and resuspended at 10^6 cell/ml in HBSS containing 1% FBS. Cytosolic [Ca^2+] release was determined using excitation at 350 nm using a Photon Technology International fluorimeter (excitation at 350 nm, ratioed dual emission at 400 and 490 nm).
The functional activities of CKβ8-1 (25-116) were investigated in human FPRL1-L1.2 transfectants and in native L1.2 cells. Stable expression of formyl peptide-like receptor 1 (FPRL1) in L.1.2 cell was obtained as follows. Full length cDNA encoding FPRL1 was cloned, using the polymerase chain reaction (PCR), from genomic DNA isolated from undifferentiated HL-60 cells. […] Twenty micrograms of the FPRL1/pcDNA3.1 construct were linearized by digestion with Bsm1 (New England Biolabs, Beverly, Mass.) and used to transfect the murine B cell line L1.2 as follows. Twenty five million cells were washed twice and resuspended in 0.8 ml of PBS. The cells were incubated for 10 min at room temperature with the linearized FPRL/pcDNA3.1 construct DNA and transferred to a 0.4-cm cuvette, and a single electroporation pulse was applied at 250 V, 960 μF. Electroporated cells were incubated for 10 min at room temperature and transferred to culture at 37° C. in RPMI supplemented with 10% FCS. Geneticin (G418) was added to a final concentration of 800 μg/ml 48 h posttransfection and the cells plated into 96-well plates at 25,000 cells/well. After 2-3 weeks under drug selection, stable geneticin-resistant FPLR1 expressing cells were assessed for their ability to mobilize Ca^++ in response to SHAAGtide or CKbeta 8-1 at concentrations of 1 to 1000 nM.
A calcium flux test was performed on these transfectants using the method described in Example 1.
Stable expression of human FPRL1 in L1.2 cells was obtained as in Example 6. Calcium flux tests were conducted on the transfectants using the method described in Example 1. Chemokines (CKβ8(1-99), CKβ8(25-99), CKβ8-1(1-116) and CKβ8-1(25-116), were prepared as in Example 1. W peptides 1 and 2 were obtained as in Example 6. In addition, and the following SHAAGtide sequences and truncated variants (prepared as in Example 8) were tested:
All ligands were added in a dose response manner and the peak calcium flux response determined.

Assay [2] deals with human monocytes. As to the kind of experiment: Migration assay (ChemoTx), human monocytes. Format: cell-based. Particulars: 90 min, 1-100 nM. The procedure:
Migration assays were performed on monocytes and neutrophils. Human monocytes and neutrophils (prepared as in Exampe 2) were harvested and resuspended in chemotaxis medium (CM). The CM consisted of Hank's buffered salt solution (Gibco, Mass.) containing CaCl2 (1 mM) and MgSO4 (1 mM) with added 0.1% BSA (Sigma, St. Louis, Mo.). The assays were performed in 96-well ChemoTx® microplates (Neuroprobe, Mass.). Leukotactin, MlP-1α and chemokines (CKβ8(1-99), CKβ8(25-99), CKβ8-1(1-116) or CKβ8-1(25-116), prepared as in Example 1) were added to the lower wells (final volume 29 μL), and 20 μL of cell suspension (5×10^6 cells/mL for monocytes; 2.5×10^6 cells/mL for neutrophils) added to the polycarbonate filters (5 μm pore size for monocytes; 3 μm pore size for neutrophils). After incubation for 90 min (37° C., 100% humidity, 5% CO2), cells were removed from the upper surface of the filter by scraping. Cells that migrated into the lower chamber were quantified using the Quant cell proliferation assay kit (Molecular Probes, Oreg.).
The chemotactic activity on human monocytes and neutrophils of chemokines: CKβ8(1-99), CKβ8(25-99), CKβ8(1-116) and CKβ8(25-116); W peptides 1 and 2 and the SHAAGtide sequences SEQ ID NO:1 and SEQ ID NO:2 was determined in migration assays. The above peptides were prepared as in previous examples. The migration assays were performed in 96-well CHEMOTX® microplates (Neuroprobe) using the protocol described in Example 5.

Assay [3] deals with neutrophils. Nature of the assay: Cross-desensitization with leukotactin, neutrophils. Format: cell-based, human. As for the experimental part:
In cross-desensitization tests tests, cells were stimulated sequentially with leukotactin and then the chemokines CKβ8(1-99), CKβ8(25-99), CKβ8-1(1-116), and CKβ8-1(25-116). On HEK293-CCR1 transfectants (prepared as in Example 1), leukotactin induced similar patterns of receptor desensitization to all variants.
Similar receptor cross-desensitization tests were performed using both monocytes and neutrophils (prepared as in Example 2).

Consider MLWRRKIGPQMTLSHAAY [SEQ ID NO: 6], for which, in assay [1], the “Designation and FPRL1 Activity” value is given as “high”; the “Notes: activity” value is given as “high”.
For the molecule MLWRRKIGPQMTLSHAAG [SEQ ID NO: 1], the migration of monocytes result in assay [2] is given as “produced migration”. Also, in assay [1], the “Designation and FPRL1 Activity” value is recorded as “high”; the “Notes: activity” value is listed as “high”.

B1: CKβ8-1(25-116): novel NH2-terminal truncated form of CKβ8-1, SEQ ID NO: 16, human recombinant chemokine (protein, listed as Homo sapiens)
chain: MLWRRKIGPQMTLSHAAGFHATSADCCISYTPRSIPCSLLESYFETNSECSKPGVIFLTKKGRRFCANPSDKQVQVCMRMLKLDTRIKTRKN
As for B1, the “desensitization by leukotactin prestimulation” value (“desensitization” for short) in assay [3] is “did not desensitize”. The migration of monocytes entry in assay [2] is “dramatically higher activity than the other three variants at 100 nM and 1 and 10 nM was very similar to the other variants and produced migration”. Further, the “calcium release / mobilization” value is “stimulated calcium release” in assay [1] and “induced calcium mobilization” in assay [1] (listed as CKβ8(25-116)).

B2: CKβ8(25-99): known truncated CKβ8 variant, human recombinant chemokine from R&D Systems (protein, listed as Homo sapiens)
chain: RFHATSADCCISYTPRSIPCSLLESYFETNSECSKPGVIFLTKKGRRFCANPSDKQVQVCMRMLKLDTRIKTRKN
Take B2: the “desensitization” value in assay [3] was “inactive”. Further, the migration of monocytes result in assay [2] is recorded as “moderate activity”.

B3: CKβ8-1(1-116): alternatively spliced form of CKβ8, 116 amino acids, human recombinant chemokine (protein, listed as Homo sapiens)
chain: RVTKDAETEFMMSKLPLENPVLLDMLWRRKIGPQMTLSHAAGFHATSADCCISYTPRSIPCSLLESYFETNSECSKPGVIFLTKKGRRFCANPSDKQVQVCMRMLKLDTRIKTRKN
As for B3, the “desensitization” value in assay [3] was “inactive”. The migration of monocytes result in assay [2] is given as “moderate activity”. Also, the figures for the “calcium release / mobilization” value in assay [1] and in assay [1] (listed as CKβ8(1-116)) were “no activity” and “did not give significant mobilization”, respectively.
